Measurements as given in article doi:10.1101/2021.07.27.453956 (bioRxiv, 2021).
Values belong to the molecule of their own block, whether it stands above or below them.

B1: TwinStrep-MBP-Panx, full length, recombinant (SFiNX subunit) (natural protein)
chain: MEAPMKLEVKVENYVECGINEDEATPLREGTGETPPHAFACGVPMSGSGWCSDPEDGNLVHHSATPTSDEHLQPSLDTIEPKMEPKIKEDADNAMLDSLLADPFENNSPATLQTPADVKPNAMLDSVEQGSRSCELLPSEFSKRENLDDMDLFSLKAAKTLVPDEQQSFPQNDTPIDDPEAADLIAQKREILKMLEMTAENRKVKHKKKKHKKERSHRSNKHQEESRKRNHSNSSSDEGADDKNQFDCDYRGHKKYKNRRGSASSQNESSKERKLRDTELDYVPVRPDEHFIRPIKFSNLIERRPPQVEFNTVNLSKADKRSLAVARAELVLEQIQQKANKEEPPEFHMVDTICKLPVNESFRNQDCFENPSPICNNMNVVYKFNSTPGTRIDLSKWGLETVPEATKRLLRLLGIDVARLKELQSTVKPSQRILKLKKEQLEQGLAPTEEQETATLYKNAATQTERRTATRDAGTQVRLESKLNGAFWQNPHFDPMNLTQHQSNVMLALQEIYQTLPSATMAVKLSRALAPALAIIKGRQP

Legend:
[1] = biological target: Sov NTD (aa 14-90), C-terminal His tagged (D. melanogaster); assay: ITC
[2] = biological target: Nxf2–Nxt1 heterodimer, recombinant (SFiNX subunits) (Drosophila, UniProt Q9VV73;Q9V3H8); assay: co-purification of a recombinant complex
Sequence of Nxf2–Nxt1 heterodimer, recombinant (SFiNX subunits) (Q9VV73 whole entry, one chain of several): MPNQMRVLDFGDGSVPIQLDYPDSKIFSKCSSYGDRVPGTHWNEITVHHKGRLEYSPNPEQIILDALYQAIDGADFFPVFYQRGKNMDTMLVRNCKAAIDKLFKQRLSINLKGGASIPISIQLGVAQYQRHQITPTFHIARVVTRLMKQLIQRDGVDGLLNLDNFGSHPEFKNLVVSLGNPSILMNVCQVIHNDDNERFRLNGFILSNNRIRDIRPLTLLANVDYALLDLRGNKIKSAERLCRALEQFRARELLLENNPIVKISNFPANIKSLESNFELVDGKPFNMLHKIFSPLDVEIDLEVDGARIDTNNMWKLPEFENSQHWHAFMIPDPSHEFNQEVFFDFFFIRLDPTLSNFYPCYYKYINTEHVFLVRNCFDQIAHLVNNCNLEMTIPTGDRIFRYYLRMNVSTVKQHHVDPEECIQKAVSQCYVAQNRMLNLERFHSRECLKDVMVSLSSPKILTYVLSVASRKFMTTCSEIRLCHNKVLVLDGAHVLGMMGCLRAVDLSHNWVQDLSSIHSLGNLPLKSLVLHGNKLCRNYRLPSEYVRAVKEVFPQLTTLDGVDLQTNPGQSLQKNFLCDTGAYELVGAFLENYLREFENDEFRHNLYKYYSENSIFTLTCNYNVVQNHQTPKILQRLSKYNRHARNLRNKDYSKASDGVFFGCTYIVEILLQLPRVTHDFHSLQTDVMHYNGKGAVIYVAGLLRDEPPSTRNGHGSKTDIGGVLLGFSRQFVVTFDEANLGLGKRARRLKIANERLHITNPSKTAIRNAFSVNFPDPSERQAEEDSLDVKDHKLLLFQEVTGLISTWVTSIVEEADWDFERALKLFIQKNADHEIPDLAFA

[3] = biological target: B1; assay: co-purification of a recombinant complex

- Kd [1]: 870 nM
Molecule: His-SUMO tagged Panx LxxLL peptide (aa 82-108), wildtype (from UniProt Q9W2H9 82-108)

Molecule: B1
- binding result [2]: binds

- binding result [3]: binds
B2: His6-Ctp, recombinant (SFiNX subunit) (natural protein)
chain: MSDRKAVIKNADMSEEMQQDAVDCATQALEKYNIEKDIAAYIKKEFDKKYNPTWHCIVGRNFGSYVTHETRHFIYFYLGQVAILLFKSG
